Test results taken from the DeepSol protein solubility set.

Assay: soluble on expression in E. coli; label from the status in PepcDB or PDB records

Sequence	soluble on expression in E. coli
MFTCKVNEHITIRLLEPKDAERLAELIIQNQQRLGKWLFFAENPSSADTYRETIIPDWRRQYADLNGIEAGLLYDGSLCGMISLHNLDQVNRKAEIGYWIAKEFEGKGIITAACRKLITYAFEELELNRVAICAAVGNEKSRAVPERIGFLEEGKARDGLYVNGMHHDLVYYSLLKREWEGEKLEHHHHHH	not soluble
MDKTNLGELINQGKSLLDESVEGFNVGEYHKGAKDGLTVEINKAEEVFNKEDATEEEINLAKESLEGAIARFNSLLIEESTGDFNGNGKIDIGDLAMVSKNIGSTTNTSLDLNKDGSIDEYEISFINHRILNLEHHHHHH	soluble
MSLDQTVSNNFKMIYIASCGEGINAFHLVESTLVQFPDSDITVVKVPHIRTESQVDHLLDRVKDVESLIAHTIVEPNLRQYLVTKAEEHKIVTIDLMGQVLNKIETFLSIRPLGKPGLYRETHQVDLKQVTAIDFALAHDDGLRPESLDEAEIILVGLSRAGKTPLSMYMGVMGWKVANIPYVPGVPMPQTLDEVDRRRVIALNINIEQLLSHRKMRQESLGTSDMHAYSRRQEVEVEVQTAQKYYITKGFSMIDVSNKPIETSAEEIAEMITRRFKAQAHLKDEGHHHHHH	soluble
MAHHHHHHMRCHVMGPSGHKSEYHCATLLGNWQEERRSFGFVDPAREPLSYMTVYKDSFRGTKTDEELANAKPPSCFHENALPELLFYHNEITNPPKNLLTVNELSYTNAKGGEEVNTLHDILHKEGVSKKRDKTIAIRRELGFIGYGAPHEGSLLASKGATATPLDYTMRCGTTTDQNFLESTRGGCYKPPVIPAIGRMQEKQRLLTTKNVTVDATGEYLKDNIDEYPATSSECWGMFMKFTDNMKGKKLRECYED	not soluble
MIQIRPMTPEDFDRFWPTFQAVVVAQETYAYDPALTQEQACDVWLKLPLHTLIAEEDGQLLGSYYLKANAAGPGNHVCNCGYMVTDAALGRGVARLMCEHSQQLARDSGFLAMQFNSVVASNEVAVALWAKLGFETVGRLPKAYRHARLGLVDCLVMFKWLADAPIAAEPVQPKLIGRKNIESVVSRPRRK	not soluble
MGSDKIHHHHHHMMLGPEGGEGYVVKLRGLPWSCSIEDVQNFLSDCTIHDGVAGVHFIYTREGRQSGEAFVELESEDDVKLALKKDRESMGHRYIEVFKSHRTEMDWVLKHSGPNSADSANDGFVRLRGLPFGCTKEEIVQFFSGLEIVPNGITLPVDPEGKITGEAFVQFASQELAEKALGKHKERIGHRYIEVFKSSQEEVRSYSDPPLKFMSVQRPGPYDRPGTARRYIGIVKQAGLDRMRSGAYSAGYGGYEEYSGLSDGYGFTTDLFGRDLSYCLSGMYDHRYGDSEFTVQSTTGHCVHMRGLPYKATENDIYNFFSPLNPVRVHIEIGPDGRVTGEADVEFATHEEAVAAMSKDRANMQHRYIELFLNSTTGASNGAYSSQVMQGMGVSAAQATYSGLESQSVSGCYGAGYSGQNSMGGYD	not soluble
MNFNGSLFERLADKTQKKTDLNEEERITASIATHLAKLLGTRAGSVNTLPDYGLPELNNASLSAHDTVRQSRLAIEKAIRDYEPRLSEVHVMSDESSWCVLKRTFSIDASLDMNGVKKTVVFSIAVAGDGHVILN	not soluble
AHHHHHHGSDGLTAQEFLTLVKLERGMYLSKEEKDDVERIKEKNKRVLELIKDHHKDFDVYLTGHIDFDNLLTMYEIYKELKKRGVNVYYPGLFWANWREKGEIEYKIKNNAKILLVITQTISFGTSVDVGFFIHRKINEEEAKIVFCYTGPSYEFESLKTHPASIYIDYFTRDIEDAIEKTLEFLSL	soluble
MTDNNKYRDVEIRAPRGNKLTAKSWLTEAPLRMLMNNLDPQVAENPKELVVYGGIGRAARNWECYDKIVETLTRLEDDETLLVQSGKPVGVFKTHSNAPRVLIANSNLVPHWANWEHFNELDAKGLAMYGQMTAGSWIYIGSQGIVQGTYETFVEAGRQHYGGSLKGKWVLTAGLGGMGGAQPLAATLAGACSLNIESQQSRIDFRLETRYVDEQATDLDDALVRIAKYTAEGKAISIALHGNAAEILPELVKRGVRPDMVTDQTSAHDPLNGYLPIGWTWEQYRDRAQTIPAAVVKAAKASMAVHVQAMLDFQKQGVPTFDYGNNIRQMAKEEGVANAFDFPGFVPAYIRPLFCRGVGPFRWAALSGEAEDIYKTDAKVKELIPDDAHLHRWLDMARERISFQGLPARICWVGLGLRAKLGLAFNEMVRSGELSAPVVIGRDHLDSGSVSSPNRETEAMRDGSDAVSDWPLLNALLNTAGGATWVSLHHGGGVGMGFSQHSGMVIVCDGTDEAAERIARVLTNDPGTGVMRHADAGYDIAIDCAKEQGLDLPMITG	soluble
MSKNMQNTSYRKLDVDSFDPEQYDENDETVDTPGLGPDERAVQGFLSSNRLEDALHAALLSPPLKTKDQNVKDRATQLVTKVLQSFKNAEIEATVQKLSIEESDILMKYVYKSMEIGADAAVCQSLLAWHAQLVAKFGHGAIMRVFSGRQRL	soluble
MSLLKVRLCPAERPEAMLIDAHQHFWLMKDRAGQWPPPSLAAIYRDFLPTDLSPLLTAAGVSGTVLVQTMETAADTDFMLELAENTDFIKGVVGWVDMKSAEVTAEIARRAKHPAFKGVRPMLQGMEDVAWIDDAALNAAVEALVKHGLVFDALVLPPNLPHLLSFASKHPELPVVIDHGAKPLIATGHYRDWRRNMAALAARPNVHCKLSGLLTERGEQRPEAVRPYAETILELFGGDRVIFGSDWPVLRLAGDFQGWLDFCRDIVPAKDHAAVFGGNAIRFYSLTDREGHHHHHH	not soluble
MGSDKIHHHHHHMPVTAIFSPDTPAMGIGWRHPHYAGLLQTGPALDFIEVHSENFFAPGGAARAVLRQGREHYPVSLHGTGLSLGSACGVDEWHLAQLAELVQEIDPVRVSDHASFARGHLPGTDAPVHAADLLPVPFTREALAVMCSNVQRVQERLKRPIAVENLSAYLDWRAADMRETEFLAALAQRTGCSLLVDVNNLYVNAQNAWLRGALNSAPGDADAALASCRDWIDQIAASPVAELHLAGHAHLGDIVIDDHGSRVCAEVWQLYRHALARLGPVPTLIEWDTDVPALSVLLDEVARARGIAQGRPATRQPSAEARP	not soluble
GPGSMQSDFDNVETELRDIEETFTTGRMNAFGSASTQDAFVHELKRIAEIETQVFYRTCALLKSSHTNEHQLVTNMYASAQPPPQSQRSGPATTSPSSNLGDGSFRANSSGLESSMYRGPMNQRSQSSFASTVAGGLSGAPPSNSNIHSSSASRRQSRQGWENVSAGSPFPGVGDGGASSGAAPHIHRSEWGNEDGFADKAFEDVAAHFEELESQFFSLGDYLREISKHVIRLNDMSKQVNNGVNYGANGGVTGAPAAAANANGSSNNTDMLQTVGSMGRQDYPGSFIDPTSIGGGSGYGMDGPHS	soluble
MGSDKIHHHHHHAKKVKGNGDIITKEISVRDYSAIKVGSTAMGYSDSWFSLFSRGGNPSYVFGYTQGESASLRITIDENLYPYINVQVKNEELSISTENGTQLSPTRFKIEGTSKKLEKIKMSGCMDFVLRSALSGDDLEIIATRGSDVKMEQPINVSNCIIEATSGSDIIINDLTTRIIRGRASGGSDLKLTGKAENGEYSASGGSDIKAYDLILNQLECSASGGSDIYTHVTDYIKASASGGSDVHYKGSARSDTSTSGGSDIIKEGN	not soluble
MTDVKTQNAISLKGSAQLVKEFFHFGLNSILYQRALYPSDSFKREKKYGLTLWVAHEKKLQAFMDPLLQQVEYWLAKRQLKRLVMVISEVKTKEVVERWQFDIHTENLAEEGYEIV	not soluble
MILFVGFLLMEIVMPQISRTALVPYSAEQMYQLVNDVQSYPQFLPGCTGSRILESTPGQMTAAVDVSKAGISKTFTTRNQLTSNQSILMNLVDGPFKKLIGGWKFTPLSQEACRIEFHLDFEFTNKLIELAFGRVFKELAANMVQAFTVRAKEVYSARLEHHHHHH	not soluble
MGSDKIHHHHHHMQLPFIAVDYVISVGLCAASTNPSQDKRIKKITVLAVSGKGDLPISFIENQALLDEAAMLTCMAYVDLNPIRAQLADTPEQSDHTSIQLRIRAALKGEQPKNLLPFIVNERDNQPNGIAFLLSDYLELVDDTGRIIRSDKRGAISENSAKLLARLNIPHDNWLKLTTEFGKLFRGPVGTLQELTDYCEHLEKRRRHFAKCCLHFHSN	not soluble
MYEITATIVTYKNPDSVLLKAINSFLNTKLEVRLYIIDNSPTDYLKDISYDPRVEYIFMNSNNGFGAGHNVILRDPEKMGKYHLILNPDISFEEGTLEKLYDYMEGKLDVGNVMPKVIYPNGELQYLCKLLPTPKDWIVRMFLPIKSIKNRIDYNFEMKFADYDREMNIPYLSGCFMFLRKSVIEGIGVFDEGIFMYGEDTDLNRRIYRKYKTMYYPQVTITHHFEKGSHKSLRLLWIHVKAAIYYLNKWGWFFDKERSIINITVKQQYIRKLEHHHHHH	soluble
GMSDHVCQEGCRHHSHGEDSPEIQQEFQEGRRDFMRDFAVGGVLASAASLGISSSAFGQTMPKTGLTSGHATHYYIPASDKTVSWGFFSKSLKPVVELESGDFATIETLTHHSNDDASLMVKGDPGAESVFYWDSKRKNVDRRGMGPMDHKLGAGGGMGVHILTGPVAIKGAEPGDVLEVRIVDVALRPSANPEFKGKTFGSNVAANWGFHYNELIEEPKKREVVTIYELDATGERNWARAFYNYRWTPQKDPFGVVHPIVDYPGVPVDHSTISKNYNVLKNIRVPVRPHFGTMGLAPKEADLVNSVPPSHFGGNIDNWRIGKGATMYYPVSVAGGLFSVGDPHASQGDSEMCGTAIECSLTGTFQFILHKKADLPGTPLADLQYPLLETQDEWVLHGFSYANYLAELGPDAQNSIFSKSSLDLALKDAFRKMRHFLMQTQNLTEDEAVSLMSIGVDFGITQVVDGNWGVHAVVKKGIFPGRDV	soluble
MGHHHHHHSHMAPPRIGTHNGTFHCDEALACALLRLLPEYRDAEIVRTRDPEKLASCDIVVDVGGEYDPRRHRYDHHQRSFTETMSSLSPGKPWQTKLSSAGLIYLHFGHKLLAQLLGTSEEDSMVGTLYDKAGFKRAMDLVQEEFLQRLDFYQHSWLPARALVEEALAQRFQVDPSGEIVELAKGACPWKEHLYHLESGLSPPVAIFFVIYTDQAGQWRIQCVPKEPHSFQSRLPLPEPWRGLRDEALDQVSGIPGCIFVHASGFIGGHRTREGALSMARATLAQRSYLPQIS	soluble
MSLKIHCLKLKNKELNKEVAFYLTSIIRQALKNTEYKDQISSTVLPDIKIKLPIDSRGTPDWNYMERYRDREGHHHHHH	soluble
MSSRKKVRVLLLKNKTVPIDKYELECRSKAFEPIFVPLIKHTHVIQDFRNVLNTIPNYLNTINYIIITSQRTVESLNEAIIPTLTSEQKAALLSKTVYTVGPATANFIRRSGFINVKGGEDAGNGSILADIIIDDLSTDIKACPPSELLFLVGEIRRDIIPKKLHSKGIKVREVVTYKTEELSDGFKRFIHAMKECDEDEVFSDWVVVFSPQGTKEITQYLGDSNRLPGSHLRVASIGPTTKKYLDDNDVTSDVVSPKPDPKSLLDAIELYQRHK	soluble
MSVMADRLDNMDITVSSPDGNIEGRYRRRGELTLEFRGDAYEQYRQHTLEHQLARLATLLWTGYQREYDAAVSEVVGHPVKDERHLWDANRRRYREAQRATAASGMSAGGRVYIENTGMLSWHVVIRDGTLGELTAAEFASECLSAFDALWRDYRSKMAALRAEHYGLSFASKRRERQPRH	not soluble
MKNMTALSPSELPRLIDFLEQRNEFAVYAGRVHIHPVTRFCIYWLLLTMTRIREAALMEWSELDGEVWRIPAERKKERRGHDVPLSRAMRWVLDQARGLNVNGRFVFESVNFQGHINKESPHVAMRRSGLDTTAHGLRSLARTYLREVLKVYNDVAEKLLAHSLGLEHHHHHH	not soluble
